The text below walks through data of PMC11904497.

The target of assay [1] is S2SbHbN, Shewanella benthica strain KT99 TrHbN-2 (UniProt ID: A9DF82) with Cys51Ser and Cys71Ser replacements (Shewanella benthica strain KT99). The assay can be described thus: HP-SAXS (batch SAXS in the high-pressure cell); undiluted sample 10 mg/ml in the high-pressure cell, ambient pressure (0.101 MPa) point of the pressure series; volume-fraction analysis, radius of gyration and molecular mass.

Assay [2] has as its target Y34F S2SbHbN (Shewanella benthica strain KT99). Described as above.

“S2SbHbN, Shewanella benthica strain KT99 TrHbN-2 (UniProt ID: A9DF82) with Cys51Ser and Cys71Ser replacements (natural protein)” showed a stoichiometry N in assay [1] of 4.
In turn, Y34F S2SbHbN (natural protein) yielded a stoichiometry N in assay [2] of 4.
